Laboratory results published in article PMC4816226.

Target: biotinylated bovine serum albumin (bovine) (UniProt P02769)
Assay: broad-band Mach-Zehnder interferometry (label-free, TE and TM phase shifts); multiplexed chip: mouse IgG (WGs 1, 4, 7, 10), biotinylated-BSA (WGs 2, 5, 8) and BSA blanks spotted on the sensing arms, blocked with BSA; 1 nM streptavidin in assay buffer (50 mM phosphate, pH 7.4, 10 g/L BSA) for 20 min, then 10 nM anti-mouse IgG antibody for 20 min; 20 ul/min

Sequence of UniProt P02769 (P02769 25-607): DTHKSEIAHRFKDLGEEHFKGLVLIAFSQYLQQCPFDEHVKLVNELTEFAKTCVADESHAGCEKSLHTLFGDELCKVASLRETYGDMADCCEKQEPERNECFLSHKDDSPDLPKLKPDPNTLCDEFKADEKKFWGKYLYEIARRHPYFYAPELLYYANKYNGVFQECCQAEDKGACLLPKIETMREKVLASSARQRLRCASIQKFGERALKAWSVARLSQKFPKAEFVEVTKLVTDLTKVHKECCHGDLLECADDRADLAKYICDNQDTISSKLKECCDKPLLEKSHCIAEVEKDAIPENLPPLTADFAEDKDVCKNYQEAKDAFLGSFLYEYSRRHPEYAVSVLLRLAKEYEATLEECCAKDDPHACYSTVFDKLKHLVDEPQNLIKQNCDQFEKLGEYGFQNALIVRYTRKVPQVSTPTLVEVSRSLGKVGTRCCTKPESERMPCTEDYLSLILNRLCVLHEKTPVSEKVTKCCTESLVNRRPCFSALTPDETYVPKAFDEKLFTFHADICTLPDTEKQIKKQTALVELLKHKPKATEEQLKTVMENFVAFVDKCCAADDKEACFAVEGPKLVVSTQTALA

Immunopure Streptavidin (from UniProt P22629 25-183) (natural protein)
TE phase shift after 20 min with 1 nM streptavidin (interferometer 2): 4.48 radians | TE phase shift after 20 min with 1 nM streptavidin (interferometer 5): 4.56 radians | TE phase shift after 20 min with 1 nM streptavidin (interferometer 8): 4.25 radians | TM phase shift after 20 min with 1 nM streptavidin (interferometer 2): 6.02 radians | TM phase shift after 20 min with 1 nM streptavidin (interferometer 5): 6.87 radians | TM phase shift after 20 min with 1 nM streptavidin (interferometer 8): 5.73 radians
